Test results reported in patent US20100120024.
pKd: −log10 of the molar value. Where two headings read alike, the source gives them in different places.

Columns and labels:
IgE (Homo sapiens) = experiment: filter; details: 2'-OMe A,G,U; 2'-deoxy C; pool; DPBS with Ca2+ and Mg2+
[1] = target: von Willebrand factor (vWF) (Homo sapiens) (UniProt P04275); experiment: filter; details: 2'-OMe A,G,U; 2'-deoxy C; pool; DPBS with Ca2+ and Mg2+
[2] = target: von Willebrand factor A1 domain (Homo sapiens) (UniProt P04275); experiment: filter; details: 2'-OMe A,G,U; 2'-deoxy C; pool; DPBS with Ca2+ and Mg2+
[3] = target: T7 RNA polymerase Y639L/H784A/K378R (Bacteriophage T7) (UniProt P00573); details: MNA yield, 8 mM MgCl2, 2.5 mM MnCl2
[4] = target: T7 RNA polymerase Y639L/H784A/K378R (Bacteriophage T7) (UniProt P00573); details: 2.1 ug/ml enzyme; 2'-OMe NTPs, 8 mM MgCl2, 2.5 mM MnCl2, 37 C
[5] = target: T7 RNA polymerase P266L/Y639L/H784A/K378R (Bacteriophage T7) (UniProt P00573); details: 11 ug/ml enzyme (65 at 2.6, 13 at 0.66, 8.3 at 0.16 ug/ml); 8 mM MgCl2, 2.5 mM MnCl2

GGGAGAATTCCGACCACAAGNNNNNNNNNNNNNNNNNNNNNNNNNNNNNNNNNNNNNNNNCATATGTGCGTCTACATGGATCCTCA [ARC4218 dCmD round 6 pool, IgE selection]
pKd (IgE (Homo sapiens)): 8.10

GGGAGAATTCCGACCACAAGNNNNNNNNNNNNNNNNNNNNNNNNNNNNNNNNNNNNNNNNCATATGTGCGTCTACATGGATCCTCA [ARC4218 dCmD round 6 pool, vWF selection]
pKd [1]: 8.70
pKd [2]: 8.40

GGGAGAATTCCGACCAGAAGCTTNNNNNNNNNNNNNNNNNNNNNNNNNNNNNNNNNNNNNNNNCATATGTGCGTCTACATGGATCCTCA (double strand)
activity ([3]; dCmD yield 365 pmol): 473 pmol

GGGAGAGACAAGCTTGGGTCNNNNNNNNNNNNNNNNNNNNNNNNNNNNNNNNNNNNNNNNAGAAGAGAAAGAGAAGTTAATTAAGGATCCTCAG (double strand)
activity ([3]; dCmD yield 327 pmol): 404 pmol

TAATACGACTCACTATAGGGGAGTACAATAACGTTCTCGNNNNNNNNNNNNNNNNNNNNNNNNNNNNNNGGATCGTTACGACTAGCATCGATG (double strand) [ARC2118 transcription template]
activity (normalized MNA transcript yield) [4]: 100
activity (normalized MNA transcript yield) [5]: 130
